# Measurements from article PMC7898620.
# Several values for one entry are separate records, joined by “and”; a condition that tells them apart may be missing. Equal values may be shown once.
# What was measured:
# [1] = target: Rugosity and biofilm structure modulator A (RbmA), wild type (Vibrio cholerae); assay: SEC-MALS; ENrich SEC 70 column, 20 mM Tris pH 8.0, 200 mM NaCl, 2 mM DTT, 0.02% NaN3, 240-360 ug protein injected; without MgPO4
# [2] = target: Rugosity and biofilm structure modulator A (RbmA), wild type (Vibrio cholerae); assay: time-resolved SAXS; stopped-flow mixing, 5 mg/ml RbmA in 20 mM Tris/HCl pH 8, 100 mM NaCl with 10 mM potassium phosphate and 2.5 mM MgCl2; followed for 3 hr
# [3] = target: Rugosity and biofilm structure modulator A (RbmA), wild type (Vibrio cholerae); assay: AUC; sedimentation velocity, 40,000 RPM, RbmA 5 mg/ml, absorbance at 250 nm and Rayleigh interference; without MgPO4
# [4] = target: RbmA W222G mutant; assay: SEC-MALS; details: parent: est. 58; read off a plot
# [5] = target: RbmA R219A mutant; assay: SEC-MALS; details: parent: est. 58; read off a plot
# [6] = target: RbmA W119G mutant (Vibrio cholerae); assay: SEC-SAXS; analytical Superdex 200 increase 3.2/300 column in line with SAXS, 0.075 ml/min; without MgPO4; details: scale: mol monomer per mol dimer
# [7] = target: RbmA W119G mutant; assay: SEC-MALS; details: parent: est. 58; read off a plot
# [8] = target: RbmA E160A mutant; assay: SEC-MALS; details: parent: est. 58; read off a plot
# [9] = target: RbmA R219A mutant (Vibrio cholerae); assay: SEC-SAXS; analytical Superdex 200 increase 3.2/300 column in line with SAXS, 0.075 ml/min; without MgPO4; details: scale: mol monomer per mol dimer
substance,measurement,setting,value
"Rugosity and biofilm structure modulator A (RbmA), wild type (natural protein)",stoichiometry N,[1],2
same,stoichiometry N,[2],6
same,stoichiometry N,[3],4 and 2
"Rugosity and biofilm structure modulator A (RbmA), wild type W222G",other: SEC-MALS average molecular weight,[4],58 kg/mol
"Rugosity and biofilm structure modulator A (RbmA), wild type R219A",other: SEC-MALS average molecular weight,[5],36 kg/mol
RbmA W119G mutant (natural protein),dimer:monomer molar ratio,[6],2.5
"Rugosity and biofilm structure modulator A (RbmA), wild type W119G",other: SEC-MALS average molecular weight,[7],49 kg/mol
"Rugosity and biofilm structure modulator A (RbmA), wild type E160A",other: SEC-MALS average molecular weight,[8],57 kg/mol
RbmA R219A mutant (natural protein),monomer:dimer molar ratio,[9],3.5
